Source: publication PMC2895232

Tests used:
[1] = biological target: ParBΔ121–183 of Pseudomonas aeruginosa (Pseudomonas aeruginosa); assay: cross-linking; glutaraldehyde cross-linking in vitro of purified His6-tagged ParB proteins to determine the oligomeric state; WT ParB as the control
[2] = system: ParB1-229 (Pseudomonas aeruginosa PAO1161); assay: EMSA; conditions: not given in the material
[3] = biological target: wild-type ParB of Pseudomonas aeruginosa (Pseudomonas aeruginosa); assay: cross-linking; glutaraldehyde cross-linking in vitro of purified His6-tagged ParB proteins to determine the oligomeric state; WT ParB as the control

## ParBΔ121–183 of Pseudomonas aeruginosa (natural protein)
[1]
  stoichiometry N: 2

## parS
[2]
  binding signal (fold of WT affinity (>5-fold decreased)): < 0.2

## wild-type ParB of Pseudomonas aeruginosa (natural protein)
[3]
  stoichiometry N: 2
